Measured values as given in publication PMC11731779, “Transferrin Disassociates TCR from CD3 Signaling Apparatus to Promote Metastasis” (Research, 2025).

Legend:
[1] = biological target: T1, transferrin (UniProt P02787 20-698); experiment: not stated; DK8 binding to transferrin, 'binding response value' and KD (Fig. S9C and E); method not given
T1 construct: transferrin (serotransferrin); One molecule for the transferrin immobilised for SPR, added to cells (co-IP with intervention, FRET) and co-precipitated from human PBMC / T cells; Methods are in the supplement; also called Tf

[2] = biological target: T1, transferrin; experiment: SPR; Biacore T200; transferrin amine-coupled to a CM5 chip at ~6,000 resonance units; analytes in PBST (0.02% Tween 20) at 20 μl/min; TCRα, TCRβ and human serum albumin at 1,000 nM; TCRα and TRAC at 125, 250, 500 and 1,000 nM; kinetic and steady-state fits; conditions: both partners purified

T1 sequence (P02787 20-698): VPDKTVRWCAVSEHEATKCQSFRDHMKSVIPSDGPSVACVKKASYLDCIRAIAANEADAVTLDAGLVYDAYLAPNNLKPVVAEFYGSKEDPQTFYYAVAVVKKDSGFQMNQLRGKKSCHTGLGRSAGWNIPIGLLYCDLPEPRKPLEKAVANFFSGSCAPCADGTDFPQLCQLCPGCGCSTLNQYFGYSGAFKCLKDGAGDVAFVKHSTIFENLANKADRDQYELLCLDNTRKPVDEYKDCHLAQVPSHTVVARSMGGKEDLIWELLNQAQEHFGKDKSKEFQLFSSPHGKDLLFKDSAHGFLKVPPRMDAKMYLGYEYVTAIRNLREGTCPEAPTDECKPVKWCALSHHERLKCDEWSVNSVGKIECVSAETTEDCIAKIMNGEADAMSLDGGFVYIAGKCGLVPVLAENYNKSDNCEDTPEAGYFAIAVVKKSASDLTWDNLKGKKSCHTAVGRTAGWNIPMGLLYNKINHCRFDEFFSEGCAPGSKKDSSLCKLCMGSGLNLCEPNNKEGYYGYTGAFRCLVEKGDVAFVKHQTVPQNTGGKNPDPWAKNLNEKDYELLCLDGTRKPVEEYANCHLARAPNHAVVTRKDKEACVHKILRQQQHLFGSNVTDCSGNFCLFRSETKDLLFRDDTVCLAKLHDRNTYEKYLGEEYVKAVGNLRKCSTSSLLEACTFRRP

| Kd [1] [nM] | Kd [2] [nM] | Binder |
| --- | --- | --- |
| 166 |  | DMRSMDFK (amino acids 50 to 57 of TRAC (UniProt P01848); also called interfering peptide DK8; designed peptide (DK8)) [DK8] |
|  | 10.9 | T cell receptor α constant (TRAC) (domain or fragment, human, UniProt P01848 1-115, looked up, T cell receptor alpha chain constant region (TRAC), human, UniProt P01848; TRAC protein used as analyte in SPR; construct and host may stand in the Supplementary Methods; also called constant domain (CD) of TCRα; Cα) IQNPDPAVYQLRDSKSSDKSVCLFTDFDSQTNVSQSKDSDVYITDKTVLDMRSMDFKSNSAVAWSNKSDFACANAFNNSIIPEDTFFPSPESSCDVKLVEKSFETDTNLNFQNLS |
